Reference: paper PMC5371411 (mBio, 2017)
“And” between values parts separate entries of the source, which are not always exact repeats. Equal entries are not always repeated.

What was measured:
EspC His-Middle segment = target: T1, EspC His-Middle segment (enteropathogenic Escherichia coli (EPEC), UniProt Q9EZE7 382-708); experiment: SPR; His-EspA amine-coupled (EDC-NHS, 10 mM sodium acetate pH 4.0) to a planar polyethylene glycol/carboxyl sensor slide; analyte perfused in PBST at 50 µl/min; Reichert SR7500DC; settings: both partners purified
T1 construct: also called Middle fragment; source: E. coli BL21(D3)pLysS, pRSET-A, purified (Ni-NTA agarose); not shown: 6xHis, N-terminal, kept
T1 sequence: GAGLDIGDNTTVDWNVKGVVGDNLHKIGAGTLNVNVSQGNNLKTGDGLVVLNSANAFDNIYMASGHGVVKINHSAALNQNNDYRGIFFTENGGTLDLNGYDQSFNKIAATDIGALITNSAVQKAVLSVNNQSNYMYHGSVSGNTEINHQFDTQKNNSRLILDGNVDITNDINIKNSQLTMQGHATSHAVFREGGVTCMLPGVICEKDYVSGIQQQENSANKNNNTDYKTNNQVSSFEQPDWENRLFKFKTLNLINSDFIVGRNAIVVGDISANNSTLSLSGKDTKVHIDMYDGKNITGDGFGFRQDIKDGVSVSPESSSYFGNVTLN

[1] = target: the molecule itself; experiment: as above
His-EspC = target: T2, His-EspC (enteropathogenic Escherichia coli (EPEC), UniProt Q9EZE7 55-1032); experiment: SPR; His-EspC coupled by its His tag and EDC-NHS on a nickel-nitrilotriacetic acid sensor slide; His-EspA or His-EspA/His-EspD perfused in PBST at 50 µl/min; Reichert SR7500DC; settings: both partners purified
T2 construct: also called whole EspC passenger domain tagged with 6xHis; whole EspC protein (SPR); source: E. coli BL21(D3)pLysS, pRSET-A, purified (Ni-NTA agarose); not shown: 6xHis, N-terminal, kept
T2 sequence: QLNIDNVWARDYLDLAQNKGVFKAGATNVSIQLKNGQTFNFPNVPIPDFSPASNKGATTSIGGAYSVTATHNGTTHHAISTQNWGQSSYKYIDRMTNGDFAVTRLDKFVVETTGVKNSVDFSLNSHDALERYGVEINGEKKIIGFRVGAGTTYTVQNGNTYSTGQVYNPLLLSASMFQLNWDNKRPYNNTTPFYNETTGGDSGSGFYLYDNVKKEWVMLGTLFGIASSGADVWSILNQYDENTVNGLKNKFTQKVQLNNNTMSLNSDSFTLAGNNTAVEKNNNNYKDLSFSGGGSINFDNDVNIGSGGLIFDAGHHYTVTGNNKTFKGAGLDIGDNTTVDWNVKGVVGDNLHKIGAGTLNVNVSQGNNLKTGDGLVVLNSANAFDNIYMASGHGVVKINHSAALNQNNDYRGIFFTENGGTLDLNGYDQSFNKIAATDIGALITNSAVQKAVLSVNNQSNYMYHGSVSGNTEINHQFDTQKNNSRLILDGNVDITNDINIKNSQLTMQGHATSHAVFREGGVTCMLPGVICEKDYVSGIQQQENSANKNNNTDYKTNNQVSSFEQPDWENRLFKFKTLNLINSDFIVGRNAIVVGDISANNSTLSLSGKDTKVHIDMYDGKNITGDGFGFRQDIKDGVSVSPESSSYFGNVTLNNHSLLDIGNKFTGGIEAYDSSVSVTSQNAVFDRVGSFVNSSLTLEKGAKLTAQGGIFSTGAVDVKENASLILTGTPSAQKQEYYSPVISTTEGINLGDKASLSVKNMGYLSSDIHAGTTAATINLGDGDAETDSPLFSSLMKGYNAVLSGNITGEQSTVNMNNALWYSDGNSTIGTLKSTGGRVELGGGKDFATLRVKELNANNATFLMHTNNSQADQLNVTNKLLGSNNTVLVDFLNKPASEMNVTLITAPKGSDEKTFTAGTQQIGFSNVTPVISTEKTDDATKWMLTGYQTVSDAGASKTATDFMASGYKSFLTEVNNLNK

EspCS256I = EspCS256I (enteropathogenic Escherichia coli (EPEC), UniProt Q9EZE7 54-1018, S256I); experiment: pull-down; settings: both partners purified

B1: His-EspA (natural protein)
chain: MDTSTTASVASANASTSTSMAYDLGSMSKDDVIDLFNKLGVFQAAILMFAYMYQAQSDLSIAKFADMNEASKESTTAQKMANLVDAKIADVQSSSDKNAKAQLPDEVISYINDPRNDITISGIDNINAQLGAGDLQTVKAAISAKANNLTTTVNNSQLEIQQMSNTLNLLTSARSDMQSLQYRTISGISLGK
notes: also called EPEC secreted protein A
**Q.** Which Kd (EspC His-Middle segment) does the source give for B1 here?
**A.** Its Kd is 3.45 nM and 3.43 nM.

**Q.** And the Kd [1]?
**A.** The Kd was 2.64 nM.

**Q.** What about the Kd (His-EspC) of the same binder?
**A.** The Kd was 25.1 nM.

**Q.** Does B1 bind (EspCS256I)?
**A.** Result: binds
